For this assay, the target named is CH848 Env trimer expressed on the cell surface of CHO cells (HIV-1 (clade C, individual CH848, …)). Description: flow cytometry on CHO cells expressing CH848 Env. (In general: A flow cytometer gives signals particle by particle.)

B1: DH270.IA4 (antibody, V domains shown)
VH: QVQLVQSGAEVKKPGASVKVSCKASGYTFTDYYIHWVRQAPGQGLEWMGWINPNTGRTNYAQKFQGRVTMTRDTSISTAYMELSRLRSDDTAVYYCARGGWIGLYYDSSGYPNFDYWGQGTLVTVSS
VL: QSALTQPASVSGSPGQSITISCTGTSYDVGSYNLVSWYQQHPGKAPKLMIYEVSKRPSGVSNRFSGSKSGNTASLTISGLQAEDEADYYCCSYAGSSTVIFGGGTKLTVL
notes: also called DH270_I4
With B1, the binding result was “no binding (tested: 5 ug/mL)”.
